{"source": "patent US20250236657A1", "about": "(TOSOH, published 2025)", "key": {"[1]": {"target": "AAV2 (wild type), serotype 2 AAV with capsid region VP1 of SEQ ID NO: 99 (adeno-associated virus serotype 2 (AAV2)) (UniProt P03135)", "experiment": "affinity HPLC, POROS AAVX resin, linear pH gradient 4.5 to 2.2, AAV2 peak top"}, "[2]": {"target": "AAV2 D529E (adeno-associated virus serotype 2 (AAV2)) (UniProt P03135)", "experiment": "affinity HPLC, POROS AAVX resin, linear pH gradient 4.5 to 2.2, AAV2 peak top"}, "[3]": {"target": "AAV2 H271F (adeno-associated virus serotype 2 (AAV2)) (UniProt P03135)", "experiment": "affinity HPLC, POROS AAVX resin, linear pH gradient 4.5 to 2.2, AAV2 peak top"}, "[4]": {"target": "AAV2 H271Q (adeno-associated virus serotype 2 (AAV2)) (UniProt P03135)", "experiment": "affinity HPLC, POROS AAVX resin, linear pH gradient 4.5 to 2.2, AAV2 peak top"}, "[5]": {"target": "AAV2 N382A (adeno-associated virus serotype 2 (AAV2)) (UniProt P03135)", "experiment": "affinity HPLC, POROS AAVX resin, linear pH gradient 4.5 to 2.2, AAV2 peak top"}, "[6]": {"target": "AAV2 Q263A (adeno-associated virus serotype 2 (AAV2)) (UniProt P03135)", "experiment": "affinity HPLC, POROS AAVX resin, linear pH gradient 4.5 to 2.2, AAV2 peak top"}, "[7]": {"target": "AAV2 S264A (adeno-associated virus serotype 2 (AAV2)) (UniProt P03135)", "experiment": "affinity HPLC, POROS AAVX resin, linear pH gradient 4.5 to 2.2, AAV2 peak top"}, "[8]": {"target": "AAV2 S267A (adeno-associated virus serotype 2 (AAV2)) (UniProt P03135)", "experiment": "affinity HPLC, POROS AAVX resin, linear pH gradient 4.5 to 2.2, AAV2 peak top"}, "[9]": {"target": "AAV2 T503S (adeno-associated virus serotype 2 (AAV2)) (UniProt P03135)", "experiment": "affinity HPLC, POROS AAVX resin, linear pH gradient 4.5 to 2.2, AAV2 peak top"}, "[10]": {"target": "AAV2 (wild type), serotype 2 AAV with capsid region VP1 of SEQ ID NO: 99 (adeno-associated virus serotype 2 (AAV2)) (UniProt P03135)", "experiment": "affinity HPLC, POROS AAVX resin, linear pH gradient 6.0 to 2.0, AAV2 peak top"}, "[11]": {"target": "AAV2 D528A (adeno-associated virus serotype 2 (AAV2)) (UniProt P03135)", "experiment": "affinity HPLC, POROS AAVX resin, linear pH gradient 6.0 to 2.0, AAV2 peak top"}, "[12]": {"target": "AAV2 D529A (adeno-associated virus serotype 2 (AAV2)) (UniProt P03135)", "experiment": "affinity HPLC, POROS AAVX resin, linear pH gradient 6.0 to 2.0, AAV2 peak top"}, "[13]": {"target": "AAV2 D529E (adeno-associated virus serotype 2 (AAV2)) (UniProt P03135)", "experiment": "affinity HPLC, POROS AAVX resin, linear pH gradient 6.0 to 2.0, AAV2 peak top"}, "[14]": {"target": "AAV2 E499A (adeno-associated virus serotype 2 (AAV2)) (UniProt P03135)", "experiment": "affinity HPLC, POROS AAVX resin, linear pH gradient 6.0 to 2.0, AAV2 peak top"}, "[15]": {"target": "AAV2 G383A (adeno-associated virus serotype 2 (AAV2)) (UniProt P03135)", "experiment": "affinity HPLC, POROS AAVX resin, linear pH gradient 6.0 to 2.0, AAV2 peak top"}, "[16]": {"target": "AAV2 H271A (adeno-associated virus serotype 2 (AAV2)) (UniProt P03135)", "experiment": "affinity HPLC, POROS AAVX resin, linear pH gradient 6.0 to 2.0, AAV2 peak top"}, "[17]": {"target": "AAV2 H271F (adeno-associated virus serotype 2 (AAV2)) (UniProt P03135)", "experiment": "affinity HPLC, POROS AAVX resin, linear pH gradient 6.0 to 2.0, AAV2 peak top"}, "[18]": {"target": "AAV2 H271Q (adeno-associated virus serotype 2 (AAV2)) (UniProt P03135)", "experiment": "affinity HPLC, POROS AAVX resin, linear pH gradient 6.0 to 2.0, AAV2 peak top"}, "[19]": {"target": "AAV2 H271T (adeno-associated virus serotype 2 (AAV2)) (UniProt P03135)", "experiment": "affinity HPLC, POROS AAVX resin, linear pH gradient 6.0 to 2.0, AAV2 peak top"}, "[20]": {"target": "AAV2 N382A (adeno-associated virus serotype 2 (AAV2)) (UniProt P03135)", "experiment": "affinity HPLC, POROS AAVX resin, linear pH gradient 6.0 to 2.0, AAV2 peak top"}, "[21]": {"target": "AAV2 Q263A (adeno-associated virus serotype 2 (AAV2)) (UniProt P03135)", "experiment": "affinity HPLC, POROS AAVX resin, linear pH gradient 6.0 to 2.0, AAV2 peak top"}, "[22]": {"target": "AAV2 Q385A (adeno-associated virus serotype 2 (AAV2)) (UniProt P03135)", "experiment": "affinity HPLC, POROS AAVX resin, linear pH gradient 6.0 to 2.0, AAV2 peak top"}, "[23]": {"target": "AAV2 R471A (adeno-associated virus serotype 2 (AAV2)) (UniProt P03135)", "experiment": "affinity HPLC, POROS AAVX resin, linear pH gradient 6.0 to 2.0, AAV2 peak top"}, "[24]": {"target": "AAV2 S264A (adeno-associated virus serotype 2 (AAV2)) (UniProt P03135)", "experiment": "affinity HPLC, POROS AAVX resin, linear pH gradient 6.0 to 2.0, AAV2 peak top"}, "[25]": {"target": "AAV2 S267A (adeno-associated virus serotype 2 (AAV2)) (UniProt P03135)", "experiment": "affinity HPLC, POROS AAVX resin, linear pH gradient 6.0 to 2.0, AAV2 peak top"}, "[26]": {"target": "AAV2 S267T (adeno-associated virus serotype 2 (AAV2)) (UniProt P03135)", "experiment": "affinity HPLC, POROS AAVX resin, linear pH gradient 6.0 to 2.0, AAV2 peak top"}, "[27]": {"target": "AAV2 S384A (adeno-associated virus serotype 2 (AAV2)) (UniProt P03135)", "experiment": "affinity HPLC, POROS AAVX resin, linear pH gradient 6.0 to 2.0, AAV2 peak top"}, "[28]": {"target": "AAV2 T503S (adeno-associated virus serotype 2 (AAV2)) (UniProt P03135)", "experiment": "affinity HPLC, POROS AAVX resin, linear pH gradient 6.0 to 2.0, AAV2 peak top"}}, "data": [{"substance": "POROS Capture Select AAVX Affinity Resin (manufactured by Thermo Fisher Scientific)", "values": [{"measurement": "AAVX column elution time", "setting": "[1]", "result": 48.2, "unit": "min"}, {"measurement": "AAVX column elution time", "setting": "[2]", "result": 48, "unit": "min"}, {"measurement": "AAVX column elution time", "setting": "[3]", "result": 48.1, "unit": "min"}, {"measurement": "AAVX column elution time", "setting": "[4]", "result": 48.1, "unit": "min"}, {"measurement": "AAVX column elution time", "setting": "[5]", "result": 47.9, "unit": "min"}, {"measurement": "AAVX column elution time", "setting": "[6]", "result": 48, "unit": "min"}, {"measurement": "AAVX column elution time", "setting": "[7]", "result": 48, "unit": "min"}, {"measurement": "AAVX column elution time", "setting": "[8]", "result": 48, "unit": "min"}, {"measurement": "AAVX column elution time", "setting": "[9]", "result": 48, "unit": "min"}, {"measurement": "AAVX column elution time", "setting": "[10]", "result": 59.3, "unit": "min"}, {"measurement": "AAVX column elution time", "setting": "[11]", "result": 59.1, "unit": "min"}, {"measurement": "AAVX column elution time", "setting": "[12]", "result": 59.3, "unit": "min"}, {"measurement": "AAVX column elution time", "setting": "[13]", "result": 59.3, "unit": "min"}, {"measurement": "AAVX column elution time", "setting": "[14]", "result": 59.3, "unit": "min"}, {"measurement": "AAVX column elution time", "setting": "[15]", "result": 59.3, "unit": "min"}, {"measurement": "AAVX column elution time", "setting": "[16]", "result": 59.4, "unit": "min"}, {"measurement": "AAVX column elution time", "setting": "[17]", "result": 59.3, "unit": "min"}, {"measurement": "AAVX column elution time", "setting": "[18]", "result": 59.3, "unit": "min"}, {"measurement": "AAVX column elution time", "setting": "[19]", "result": 59.3, "unit": "min"}, {"measurement": "AAVX column elution time", "setting": "[20]", "result": 59.2, "unit": "min"}, {"measurement": "AAVX column elution time", "setting": "[21]", "result": 59.3, "unit": "min"}, {"measurement": "AAVX column elution time", "setting": "[22]", "result": 59.3, "unit": "min"}, {"measurement": "AAVX column elution time", "setting": "[23]", "result": 59.4, "unit": "min"}, {"measurement": "AAVX column elution time", "setting": "[24]", "result": 59.2, "unit": "min"}, {"measurement": "AAVX column elution time", "setting": "[25]", "result": 59.3, "unit": "min"}, {"measurement": "AAVX column elution time", "setting": "[26]", "result": 59.2, "unit": "min"}, {"measurement": "AAVX column elution time", "setting": "[27]", "result": 59.3, "unit": "min"}, {"measurement": "AAVX column elution time", "setting": "[28]", "result": 59.4, "unit": "min"}]}]}
